Earlier results in paper PMC12528258.
Read-outs that look alike come from different tables or passages of the source.

Columns and labels:
[1] = target: H3K9me3 tail tail (Homo sapiens) (UniProt P68431)
[2] = target: H3K9me3 tail tail (Homo sapiens) (UniProt P68431); remark: listed apart in the source
[3] = target: H3K9me3 tail tail (Homo sapiens) (UniProt P68431); remark: listed apart in the source
[4] = target: H3K9me3 tail tail (Homo sapiens) (UniProt P68431); remark: listed apart in the source

Chain of HP1α (P45973 whole entry): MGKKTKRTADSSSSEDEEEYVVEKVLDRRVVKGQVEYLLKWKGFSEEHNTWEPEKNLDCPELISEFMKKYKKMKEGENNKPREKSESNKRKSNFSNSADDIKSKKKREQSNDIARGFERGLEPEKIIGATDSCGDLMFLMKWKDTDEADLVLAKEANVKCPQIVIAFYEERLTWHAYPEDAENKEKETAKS
Chain of HP1γ (Q13185 2-183): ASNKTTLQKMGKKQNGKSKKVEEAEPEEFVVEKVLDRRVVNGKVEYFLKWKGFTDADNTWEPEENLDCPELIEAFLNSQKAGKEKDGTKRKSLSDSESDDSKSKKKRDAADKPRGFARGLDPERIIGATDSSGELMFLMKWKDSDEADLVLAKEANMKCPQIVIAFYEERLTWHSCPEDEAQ
Chain of HP1β (P83916 whole entry): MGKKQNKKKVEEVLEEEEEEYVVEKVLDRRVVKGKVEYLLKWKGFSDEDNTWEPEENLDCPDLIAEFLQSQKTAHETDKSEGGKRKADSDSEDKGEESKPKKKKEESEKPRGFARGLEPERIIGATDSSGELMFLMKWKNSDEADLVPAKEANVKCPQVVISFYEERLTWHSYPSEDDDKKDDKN

## HP1α (from UniProt P45973)
[1]
  Kd: 35 µM
[2]
  Kd: 8.3 µM

## HP1β (from UniProt P83916)
[3]
  Kd: 5.8 µM

## HP1γ (from UniProt Q13185)
[4]
  Kd: 12 µM
